Data: patent publication EP0935607B1

Legend:
[1] = molecular target: recombinant HLA-DR2 fusion protein (DRα-Fos / DRβ-Jun heterodimer, DRA*0101 / DRB1*1501) secreted by Pichia pastoris (human); experiment: time course ELISA at 37°C, 200 nM DR2, 2 µM peptide, L243 capture
[2] = molecular target: detergent soluble DR2 purified from an EBV transformed B cell line (human) (UniProt P01903); experiment: as above

With “biotinylated MBP(85-99) peptide, biotin-SGSG-MBP(85-99) (from UniProt P02686 85-99)” as the substance, how does the time to 50% maximum binding [1] read?
Its time to 50% maximum binding is 3 h.

What about the time to plateau of binding [1] of the same substance?
The time to plateau of binding was 18 h.

And the time to plateau of binding [2]?
The time to plateau of binding was greater than 48 h.
